This data set can be described thus: soluble on expression in E. coli; label from the status in PepcDB or PDB records.
“PVVLESKQRGPCAMSRLIVKNLPNGMKEERFRQLFAAFGTLTDCSLKFTKDGKFRKFGFIGFKSEEEAQKAQKHFNKSFIDTSRITVEFCKSFGDPAKPRAWSKHAQKPSQPKQPPKDSTTPEIKKDEKKKKVAGQLEKLKEDTEFQEFLSVHRRRAQAATWANDGLDAEPSKGKSKPASDYLNFDSDSGQESEEEGAGEDLEEEASLEPKAAVQKELSDMDYLKSKMVKAGSSSSSEEEESEDEAVHCDEGSEAEEEDSSATPVLQERDSRGAGQEQGMPAGKKRPPEARAETEKPANQKEPTTCHTVKLRGAPFNVTEKNVMEFLAPLKPVAIRIVRNAHGNKTGYIFVDFSNEEEVKQALKCNREYMGGRYIEVFREKNVPTTKGAPKNTTKSWQGRILGENEEEEDLAESGRLFVRNLPYTSTEEDLEKLFSKYGPLSELHYPIDSLTKKPKGFAFITFMFPEHAVKAYSEVDGQVFQGRMLHVLPSTIKKEASEDASALGSSSYKKKKEAQDKANSASSHNWNTLFMGPNAVADAIAQKYNATKSQVFDHETKGSVAVRVALGETQLVQEVRRFLIDNGVSLDSFSQAAAERSKTVILVKNLPAGTLAAELQETFGRFGSLGRVLLPEGGTTAIVEFLEPLEARKAFRHLAYSKFHHVPLYLEWAPVGVFSSAAPQKKKLQDTPSEPMEKDPAEPETVPDGETPEDENPTEEGADNSSAKMEEEEEEEEEEEESLPGCTLFIKNLNFDTTEEKLKEVFSKVGTVKSCSISKKKNKAGVLLSMGFGFVEYRKPEQAQKALKQLQGHVVDGHKLEVRISERATKPAVTLARKKQVPRKQTTSKILVRNIPFQAHSREIRELFSTFGELKTVRLPKKMTGTGTHRGFGFVDFLTKQDAKRAFNALCHSTHLYGRRLVLEWADSEVTLQALRRKTAAHFHEPPKKKRSVVLDEILEQLEGSDSDSEEQTLQL”: the “soluble on expression in E. coli” value is given as “soluble”.
The entry for “SLRAERLTSRVKALFSVLNYERARRPGLLGASVLGLDDIHRAWRTFVLRVRAQDPPPELYFVKVDVTGAYDTIPQDRLTEVIASIIKPQNTYCVRRYAVVQKAAHGHVRKAFKSHVSTLTDLQPYMRQFVAHLQETSPLRDAVVIEQSSSLNEASSGLFDVFLRFMCHHAVRIRGKSYVQCQGIPQGSILSTLLCSLCYGDMENKLFAGIRRDGLLLRLVDDFLLVTPHLTHAKTFLRTLVRGVPEYGCVVNLRKTVVNFPVEDEALGGTAFVQMPAHGLFPWCGLLLDTRTLEVQSDYSSYARTSIRASLTFNRGFKAGRNMRRKLFGVLRLKCHSLFLDLQVNSLQTVCTNIYKILLLQAYRFHACVLQLPFHQQVWKNPTFFLRVISDTASLCYSILKAKNAGMSLGAKGAAGPLPSEAVQWLCHQAFLLKLTRHRVTYVPLLGSLRTAQTQLSRKLPGTTLTALEAAANPALPSDFKTILDEG” is “not soluble”; for “MPEAVVLINSASDANSIEQTALPVPMALVHRTRVQDAFPVSWIPKGGDRFSVTAVLPHDHPFFAPVHGDRHDPLLIAETLRQAAMLVFHAGYGVPVGYHFLMATLDYTCHLDHLGVSGEVAELEVEVACSQLKFRGGQPVQGQVDWAVRRAGRLAATGTATTRFTSPQVYRRMRGDFATPTASVPGTAPVPAARAGRTRDEDVVLSASSQQDTWRLRVDTSHPTLFQRPNDHVPGMLLLEAARQAACLVTGPAPFVPSIGGTRFVRYAEFDSPCWIQATVRPGPAAGLTTVRVTGHQDGSLVFLTTLSGPAFSGAAALEHHHHHH” it is “not soluble”; for “DISEELDYERGRYLDAMIDNHKYTGKARAIIYGQPELALALAKVCFENGVNVKLIALGAKNKILEEALKEEIKSQREEVLVLDDTDFDTIEKYAKEFNVNLFIGNSDGRRMASRLGIEIIRVGFPIHDRV” it is “not soluble”.
The entry for “MGSDKIHHHHHHMLYQLHEMQRAFLRPLAAFTDASSQLFTHPYSPLAYMPMSRQLAAGCELVHRIGKEYQKPAWNLPATEIQGKRVAVIEAVVLDKPFCRLVHFQRDVRRTAGRADPRVLLVAPLSGHHATLLRDTVRALLPAHDVYVTDWVDARMVPQDAGPFHLDDYVRYIQAFLRHLGPDTHVISVCQPTVPVLAAISLMASANDPCQPRSMVMMGGPIDPRESPTQVNRLATTKPYAWFESQLIHAVPAPYPGAGRRVYPGFLQHAGFMAMNPDRHLKSHYDFYLDLLRGDDGDAEAHRRFYDEYNAVLDMPAEFYLDTIRTVFQEWLPGGTWEIDGQLVRPADIRKTSLLTVEGELDDISGQGQTRAAIKLCSGIPAARKSHYTAVGCGHYGIFSGRRWRELICPKIAAFIRQS” is “not soluble”; for “AHHHHHHGSAELWEIVSFLDEYLKISEYPDKSSNGLQVEGKEEVNTIAFAVDACLDTIVKARAFNADMLIVHHGLIWGGVKYVKGLFAKRVKELLKSNMNLYAAHLPLDAHPEVGNNAQLLKLLGLEPKEKFGEYHGVMIGYIGEFEEEKPLPLIAQMLAEKLPVDYVKSYEFGVQEIKRVGVVSGGGGFAVEEASEKGVDLFITGEFTHEDYRAAEDLRLSVIAAGHYATETLGVKALMPILREKFGVKTIFIDSPTGL” it is “not soluble”; for “MSAEQVWQGNFEQLCLFHNLQGRWPGCREGALGRWCTIQRRDYRKGNMSDERKAQLERIGFPLALEHHHHHH” it is “not soluble”.
As for “MGSDKIHHHHHHMSAIPIIDIPFDKRHTCWFCGEPCNQHFEYHSQTHTPHPSLAVPACSECAKLAKQHPLTSIWDCRMAVKDALMRIYAKHLAIGINWTEAELAESDFSCNIFEGFKKSAWMMYQIARDRINAPGWPLRLEEIEIDDQGYSAGFEFDGVTYTSVHAAIHYYSTQFTLDPTFFADLVRLVGRARFNYALRLARIHIASAKEMKRQVLTDLEAELI”, the “soluble on expression in E. coli” value is recorded as “not soluble”.
The entry for “MGSDKIHHHHHHMLFDTSPKDNRKDFFDREKEIEKLKGLRAPITLVLGLRRTGKSSIIKIGINELNLPYIYLDLRKFEERNYISYKDFLLELQKEINKLVKRLPSLLKALKNIQGIVIMGNEIKFNWNRKDRLSFANLLESFEQASKDNVIIVLDEAQELVKLRGVNLLPALAYAYDNLKRIKFIMSGSEMGLLYDYLRVEDPESPLFGRAFSTVELKPFSREEAIEFLRRGFQEADIDFKDYEVVYEKIGGIPGWLTYFGFIYLDNKNLDFAINQTLEYAKKLILKEFENFLHGREIARKRYLNIMRTLSKCGKWSDVKRALELEEGIEISDSEIYNYLTQLTKHSWIIKEGEKYCPSEPLISLAFS” is “not soluble”; for “MGSDKIHHHHHHMWSFKSMFNTPEDPEKDAYEFYGKVQPGITTPTQKTCNFVALDLKSKDRDAIKAMFKKWTVMADRMMDGDTVGKTSNNPLMPPVDTGESIGLGASKLTITFGISKSLMKKIGLSSKIPDAFKDLPHFPNDQLIDDYSDGDIMIQACSNDSQVSFHAVHNLVRPFRDIVKVRWAQSGFISAKGKETPRNLMAFKDGTINPRKSNQLKDYVFIDDGWAKHGTYCVVRRIQIHIETWDRTALEEQEATFGRKRHSGAPLTGGKEFDEIDLKAKDSHGEYIIDKDAHTRLAKEANTSILRRAFNYVDGTDDRTGNFETGLLFIAFQKATKQFIDIQNNLGSNDKLNEYITHRGSASFLVLPGVSKGGYLGETLFD” it is “not soluble”.
The entry for “MAHHHHHHMTSGYSSYAGASGSGHERFTRILVVGEASVGKTLLIRRLCDHIFGDTSITSTDEGSAPESPYQSQSAVADDDLGPEWGPTVGIAVDALKRSTTVLEDTVTMPNLAMSTPYDTAAVARYTAPSCSLHSGENGNYPHCSVYDTPCSTSGYGRSNSVLQYRGQGFVGSNTSFALLHQLTSASPPRRQTVLQTVEFHELGGTHGYRDVARLLLRNIHYDGVMFVYHRRSLTSTLYLKEWYRWIRSVFSASPDVGSHYGAEAKKPVKCSKKMPRFMLVGTQLPGDELPAAAAGLTKAAAETLHMASGAISDETLLDGNLEVKLRALQSPQTLTQRRGVRHALSKVFRRLAWPYHMWWCVSHPFFLLSKQYQEELGPRSRLGACGSRVVERFVWLFYQAEQALLYVMAVILFGPYQEAVVLGHSRPKQTLEEMLKDELCVSQAHVCRLESNISLQSSLDDMVAFFDILLRQDAPDEGR” is “not soluble”; for “ASMTGGQQMGRDPGMTVTSQVKPEDEMDNWGRLILDGVSYSDMVGARDRPKEITWFDYWMSLANEYEQEAERKVALGHDLSAGELLMSAALCAQYAQFLWFDERRQKGQARKVELYQKAAPLLSPPAERHELVVDGIPMPVYVRIPEGPGPHPAVIMLGGLESTKEESFQMENLVLDRGMATATFDGPGQGEMFEYKRIAGDYEKYTSAVVDLLTKLEAIRNDAIGVLGRSLGGNYALKSAACEPRLAACISWGGFSDLDYWDLETPLTKESWKYVSKVDTLEEARLHVHAALETRDVLSQIACPTYILHGVHDEVPLSFVDTVLELVPAEHLNLVVEKDGDHCCHNLGIRPRLEMADWLYDVLVAGKKVAPTMKGWPLEHHHHHH” it is “soluble”.
The entry for “MAHHHHHHMGTLEAQTQGPGSMVTANSTVKVGNVTFSNSAPLALIAGPCQMETRDHAFEMAGRLKEMTDKLGIGLVYKSSFDKANRTSLKAARGIGLEKALEVFSDLKKEYGFPVLTDIHTEEQCAAVAPVVDVLQIPAFLCRQTDLLIAAARTGRVVNVKKGQFLAPWDMKNVLAKITESGNPNVLATERGVSFGYNTLVSDMRALPIMAGLGAPVIFDATHSVQQPGGQGGSTGGQREFVETLARAAVAVGVAGFFIETHEDPDNAPSDGPNMVPIDKMPALLEKLMAFDRIAKAL” is “soluble”.
In the case of “MGSDKIHHHHHHMAIEHYWDQALERSTAAQLNGALVPLSTELTRIRARQGEPFELRKLKGHPPSHLLARGPKPNPFLPWDPSLEVSEIGMRHVLILNKYPVQKGHMLLITREWAPQHGWLSYDDWEALLSVDQDTKGLWFFNSSPTAGASQPHRHLQLLRRCDDDRSCPRQEWFQSLVNSSPRESCQLTQCCAATARAQNHDAQIHYQAYLTLCEKIGLGNPAENQHPRQPYNLLLTKEWMALILRSREGIAGFSINALGFAGYLLATETSDLDWLNHHGPEALLEGVVKTIQ”, the “soluble on expression in E. coli” value is reported as “not soluble”.
The entry for “MGSDKIHHHHHHMKPRKQDEKILSDQYSYFEPIISDSCDIKFDGDKRRIGSIFISHEEICFIRKEEDYIFKISLSDVVDYNTVVTIWKNQASLTLNDNRKITFYFVTNSPLTGFISILKTYMQLSRNKETIIPDDNLLINDDDEQTKVEIFDVVGLNYEGRRKELKKLIKKMKTNDAFFFLYSDLKGNELKEELLYEDKVYEIPDYEVIPGVFLQKEPDNPYDENAIKVMISNEYSEFHVGYVPREYASRLVNYIEDTVSCNAYINGGKYKTLDYLEEKIVTKESDYGLRIHVEYKV” is “not soluble”.
The entry for “MSLQFDARNMALLESLVVANVYLAPEKLQEELGISKRTLQYDVEKINKELDNIGLDGIQSVRGQGYYLLEDEKSTIKEILGNREASHKVFSASERRIRILFFLLVTDARVIIDTINECNEVSRNTSLQDIKQLKLALKQFNLELAYDRKNGNMVLGDERSIRQFFIHYCMNNEEIATADQLLDLMKINPMIKNQELFPKLDTIFEILAVTEKKIGIRYTDEVLERIGIMIFFFKERMKRNCYLNEQEEHEVESFEIAQEIYQQLQQSENFKINHAEITYLGKLLLGASRLNDDAAAEGKLDLIVEKIIAEFERLACVNFEDHRNLKKDLLLHLQPAYYRLKFQIEWINPLRTDIKQSYSDVYEITKKSLEPLEDLLGETIPEDEIAYVTILFGGYLSRKNNEGHHHHHH” is “soluble”; for “MRILSLILWIAAIVLPVHSASAAPVKMTIVLERQYLDGEMSEEKVTETVDSMTEIWKKYRGWQLVTLDDQTIVFRKTINDISPLLKTNGYFGITDDGTLSIFNGKPDRSSEIIQSFFQIDVQKLESRQQEKLKKGIRVLSKERYEQVIEMYRHFAVVQ” it is “not soluble”.
